Data reported in publication PMC2654182 (Biochemistry, 2008).

T1: BARD1 (423-777) (human, UniProt Q99728 423-777)
T1 sequence (looked up): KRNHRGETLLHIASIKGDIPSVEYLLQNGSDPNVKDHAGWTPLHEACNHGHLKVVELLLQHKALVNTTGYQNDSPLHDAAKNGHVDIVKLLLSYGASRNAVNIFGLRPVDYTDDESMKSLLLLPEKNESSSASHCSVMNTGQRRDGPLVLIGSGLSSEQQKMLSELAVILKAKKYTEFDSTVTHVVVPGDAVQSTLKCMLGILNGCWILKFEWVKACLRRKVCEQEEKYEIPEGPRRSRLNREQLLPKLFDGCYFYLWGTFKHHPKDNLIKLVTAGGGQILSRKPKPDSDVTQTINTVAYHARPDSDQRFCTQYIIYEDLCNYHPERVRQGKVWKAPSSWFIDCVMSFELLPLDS

B1: GST-CstF-50 (92-431) (domain or fragment, human, UniProt Q05048 92-431, looked up)
chain: MSPEASEYETCYVTSHKGPCRVATYSRDGQLIATGSADASIKILDTERMLAKSAMPIEVMMNETAQQNMENHPVIRTLYDHVDEVTCLAFHPTEQILASGSRDYTLKLFDYSKPSAKRAFKYIQEAEMLRSISFHPSGDFILVGTQHPTLRLYDINTFQCFVSCNPQDQHTDAICSVNYNSSANMYVTGSKDGCIKLWDGVSNRCITTFEKAHDGAEVCSAIFSKNSKYILSSGKDSVAKLWEISTGRTLVRYTGAGLSGRQVHRTQAVFNHTEDYVLLPDERTISLCCWDSRTAERRNLLSLGHNNIVRCIVHSPTNPGFMTCSDDFRARFWYRRSTTD

Columns and labels:
BARD1 (423-777) = biological target: T1, BARD1 (423-777); test: pull-down
GST-CstF-50 (92-431) = biological target: B1; test: pull-down

Row | binding result (BARD1 (423-777)) | binding result (GST-CstF-50 (92-431)) | Binder
1 | binds | – | B1
2 | – | binds | BARD1 (554-777) (domain or fragment, human, UniProt Q99728 554-777, looked up) ASHCSVMNTGQRRDGPLVLIGSGLSSEQQKMLSELAVILKAKKYTEFDSTVTHVVVPGDAVQSTLKCMLGILNGCWILKFEWVKACLRRKVCEQEEKYEIPEGPRRSRLNREQLLPKLFDGCYFYLWGTFKHHPKDNLIKLVTAGGGQILSRKPKPDSDVTQTINTVAYHARPDSDQRFCTQYIIYEDLCNYHPERVRQGKVWKAPSSWFIDCVMSFELLPLDS
